Legend:
[1] = molecular target: His-tagged FIV recombinant p24 capsid protein (Feline Immunodeficiency Virus, Petaluma strain) (Feline immunodeficiency virus (Petaluma strain)) (UniProt P16087); test: dynamic light scattering; p24-His at 7 mg/ml, 50 mM sodium phosphate pH 7.4, 23°C; mean diameter 6.8 nm, single peak; monomer to dimer
[2] = molecular target: His-tagged FIV recombinant p24 capsid protein (Feline Immunodeficiency Virus, Petaluma strain) (Feline immunodeficiency virus (Petaluma strain)) (UniProt P16087); test: cross-linking; p24 at 7 mg/ml with BS3 (20:1 w/w BS3:p24), 30 min at room temperature, SDS-PAGE; dimer seen with and not without BS3; no higher molecular weight species
[3] = molecular target: His-tagged FIV recombinant p24 capsid protein (Feline Immunodeficiency Virus, Petaluma strain) (Feline immunodeficiency virus (Petaluma strain)) (UniProt P16087); test: ITC; dilution ITC: p24 at 7 mg/ml (243 µM) injected into buffer alone, 50 mM sodium phosphate pH 7.4, 30°C; dimer dissociation model; dimer to monomers

His-tagged FIV recombinant p24 capsid protein (Feline Immunodeficiency Virus, Petaluma strain) (from UniProt P16087 136-357) (natural protein)
stoichiometry N [1]: 2 | stoichiometry N [2]: 2 | Kd [3]: 20 µM
